The nature of the data set: yeast display, Sf9 membrane polyspecificity reagent, FACS + sequencing; frameworks hold sequencing errors. A digest of the protocol: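 Polyreactivity labels are assigned by the sorting gate from which each nanobody was recovered. The gates were low and high (top ~1%), set on anti-HA fluorescence for expression and streptavidin fluorescence for reagent binding. Before sorting, galactose-induced (36–48 hours) yeast display cells were stained for 1 hour at 4 °C with 10% biotinylated, detergent-solubilized Sf9 membrane reagent.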
Consider “QVQLVESGGGLVQAGGSLRLSCAASGITFVYYDMGWYRQAPGKERELVAAISSGGSTYYADSVKGRFTISRDNAKNNVYLQMNRLKPEDTAVYYCAAKISSNYHIGGDDYWGQGTQVTVSS”, for which the “polyreactivity (PSR sort gate)” value was “high polyreactivity”. As for “QVQLVESGGGLVQAGGSLRLSCAASGITFVYYTMGWYRQAPGKERELVASITWDGRSTYYADSVKGRFTISRDNAKNTVYLQMNSLKPEDTAVYYCNRDRVSGGKYNYWGQGTQVTVSS”, the entry is “low polyreactivity”; as for “QVQLVESGGGLVQAGGSLRLSCAASGITFWFNAMGWYRQAPGQERELVAAITSGVDTNYADSVKGRFTISRDNAKNTVYLQMNSLIPEDTAVYYCAAQGGRLKRGRTTSDYWGQGTQVTVSS”, “low polyreactivity”; as for “QVQLVESGGGLVQAGGSLRLSCAASGITFWHNTMGWYRQAPGKERELVAAISWTGGRTYYADSVKGRFTISRDNAKNSVYLQMNSLKPEDTPVYYCAADFSWTPSGNYDSWGQGTQVTVSS”, “low polyreactivity”. As for “QVQLVESGGGLVQAGGSLRLSCAASGITFWVYAMGWYRQAPGKERELVAAISRRGGSTSYADSVKGRFTISRDNAKNTVYLQMNSLKPEDTAVYYCAATTYTHPYGYWGQGTQVTVSS”, the entry is “high polyreactivity”; as for “QVQLVESGGGLVQAGGSLRLSCAASGITFWYYAMGWYRQAPGKERELVAAITGGDSTNYADSVKGRFTISRDNAKNTVYLQMNSLKPEDTAVYYCNAEGSYEGYDDYWGQGTQVTVSS”, “high polyreactivity”; as for “QVQLVESGGGLVQAGGSLRLSCAASGITFWYYAMGWYRQAPGKERELVAVISRGGSTYYADSVKGRFTISRDNAKNTVYLQLNSLKPEDTAVYYCAARPRWYTYTRQEYDYWGQGTQVTVSS”, “high polyreactivity”. The same measure for “QVQLVESGGGLVQAGGSLRLSCAASGITFWYYTMGWYRQAPGKERELVARITSGSRTSYADSVKGRFTISRDNAKNTVYLQMNSLKPEDTAVYYCAAGSYADRLWSKYNYWGQGTQVTVSS”: “high polyreactivity”; for “QVQLVESGGGLVQAGGSLRLSCAASGITFYDNVMGWYRQAPGKERELVAAITSGGSTNYADSVKGRFTISRDNAKNTVYLQMNSLKPEDTAVYYCAAQTRVDYEFPYRYGYWGQGTQVTVSS”: “low polyreactivity”; for “QVQLVESGGGLVQAGGSLRLSCAASGITFYDYAMGWSRQAPGKDRELVSAINSSGVRTYYADSVKGRFTISRDNAKNTVYLQMNSLKPEDTAVYYCAAERYYYFVPYWYDYWGQGTQVTVSS”: “high polyreactivity”. As to “QVQLVESGGGLVQAGGSLRLSCAASGITFYDYAMGWYRQAPGKERELVAVITRRGGSTYYADSVKGRFTISRDNAKNTVYIQMNSLKPEDTAVYYCAADWRVWSFVRGVDYWGQGTQVTVSS”, the “polyreactivity (PSR sort gate)” value is “high polyreactivity”.

For the sequence “QVQLVESGGGLVQAGGSLRLSCAASGITFYFNTMGWYRQAPGKERELVASISGGSSTYYADSVKGRFTISRDNAKYTVYLQMNSLKPEDTAVYYCNAQGSLFRGWFDYDYWGQGTQVTVSS”, the “polyreactivity (PSR sort gate)” value was “low polyreactivity”. The same measure for “QVQLVESGGGLVQAGGSLRLSCAASGITFYGNAMGWYRQAPGKERELVAAITYSGTSTYYADSVKGRFTISRDNAKNTVYLQMNSLKPEDTAVYYCAADEWYLVDYWGQGTQVTVSS”: “low polyreactivity”.

In the case of “QVQLVESGGGLVQAGGSLRLSCAASGITFYGNAMGWYRQAPGKERELVAGISSGGSTSYADSVKGRFTISRDNAKNTVYLQMNSLKPEDTAVYYCAKRWYYGTRYGTSYIRDYWGQGTQVTVSS”, the “polyreactivity (PSR sort gate)” value was “high polyreactivity”. The same measure for “QVQLVESGGGLVQAGGSLRLSCAASGITFYGYAMGWYRQAPGKEREFVAAISASGGSTYYADSVKGRFTISRDNAKNTVYLQMNSLKPEDTAVYYCAALVRGAYGYGYWGQGTQVTVSS”: “high polyreactivity”; for “QVQLVESGGGLVQAGGSLRLSCAASGITFYGYAMGWYRQAPGKERELVAAISSRGGSTYYADSVKGRFTISRDNAKNTVYLQMNRLKPEDTAVYYCAAVYYTGEYYYWGQGTQVTVSS”: “high polyreactivity”.

The values above are taken from the nanobody polyreactivity screen of Harvey et al. (2022).
